# Data: patent US20050142566A1 (CHILDREN S MEDICAL CENTER, published 2005)
# B1: murine CatSper2 protein (SEQ ID NO: 6) (other)
# chain: MAQEQGHFQLLRADAIRSKLIDTFSLIEHLQGLSQAVPRHTLREILDPAYQQKLMSGDQEQLVRFSIKPRRMGHITHSRRLLSRLRVRCSRMPPLSLWAGWVLDSSVFSKFIISLIFLNTFVLMVEIELMESTNTALWPVKLALEVADWFILLSFIVEILLMWLASFSLFWKDAWNVFDFFVTLLSLLPELVVLLGVPAHSVWLQLLRVCRVLRSLKLFARFRQIKVILLALVRALKSMTFLLMLLLIFFYIFAVTGVYFFREYSRSTIEGLEYNMFFSDLLNSLVTVFILFTLDHWYAVLQNIWKVPESSRVFSSIYVILWLLLGSIIFRNIIIAMMVTNFQNIRSELSEEMSHLEVQYKADMFKQQIIQRRQHSESLRGTSLGKVSEDIIETSDASDDDDDDDDDDDDDDDDDDDKSDATESDGEESDSENSESENSESEKIDPEKDYAKKSYPEKSHPEKSYPEKSHPEKSYPEKSHPEKSYDEQAEAEKVKEESKEKAYPVSHSISSHGSIAADTAFLENLDWETLVHENLPGLMDMDQDDRIVWPRDSLFRYFELLEKLQYNLEERKKLQEFAVQALMSFEDK
# notes: also called mouse CatSper2; 68,000 Mr protein
# Target: T1, CatSper1 (UniProt Q91ZR5 1-686)
# T1 sequence (looked up): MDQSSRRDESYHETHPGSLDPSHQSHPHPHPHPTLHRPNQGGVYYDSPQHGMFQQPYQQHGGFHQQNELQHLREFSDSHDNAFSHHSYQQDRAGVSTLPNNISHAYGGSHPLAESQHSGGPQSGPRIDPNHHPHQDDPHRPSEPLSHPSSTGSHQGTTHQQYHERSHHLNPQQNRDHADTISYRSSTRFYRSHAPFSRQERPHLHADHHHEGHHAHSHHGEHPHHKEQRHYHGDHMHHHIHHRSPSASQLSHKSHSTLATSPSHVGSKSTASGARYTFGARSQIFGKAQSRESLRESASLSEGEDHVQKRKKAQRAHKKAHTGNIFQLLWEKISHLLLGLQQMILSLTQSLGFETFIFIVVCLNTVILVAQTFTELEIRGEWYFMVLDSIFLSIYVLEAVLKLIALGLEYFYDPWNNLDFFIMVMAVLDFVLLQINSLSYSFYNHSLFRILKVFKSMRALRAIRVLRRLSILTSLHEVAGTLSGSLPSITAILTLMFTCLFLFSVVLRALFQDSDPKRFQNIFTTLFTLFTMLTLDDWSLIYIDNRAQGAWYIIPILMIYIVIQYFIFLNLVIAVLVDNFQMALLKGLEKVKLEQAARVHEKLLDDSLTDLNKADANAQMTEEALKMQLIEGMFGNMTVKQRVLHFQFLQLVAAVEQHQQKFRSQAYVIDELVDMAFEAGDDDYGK
# Test: co-immunoprecipitation from testis detergent extracts, immunoblot with CatSper1 antibody
# Method: For immunoprecipitation, samples were extracted with TBS (20 mM Tris-HCl, 150 mM NaCl, pH 7.4) containing either 1% TX-100 or 1% Zwittergent 3-14 for at least 4 hours at 4° C. The extract was centrifuged at 100,000 ×g for 30 min, and the resultant supernatant solution was incubated for 2 hours with preimmune IgG covalently bound to Protein A agarose (Seize X™, Pierce Chemical Co., Rockford, Ill.). The nonbound fraction was recovered and incubated with peptide reactive antibody (±1.5 μM peptide preincubation)/Protein A agarose overnight with rocking at 4° C. The resulting immune complexes were washed 5 times. SDS-polyacrylamide electrophoresis was according to Laemmli (1970), Nature 227:680-5. Electrophoretically separated samples were transferred to nitrocellulose membranes according to Towbin et al. (1979), Proc. Natl. Acad. Sci. USA 76:4350-4, at 50V for 2 hours, 4° C. Immnunoblots were probed in TBST/2:5% nonfat milk with CatSper2 antibody (1:5000) or CatSper1 (1:2000) antibody. After incubation with, the primary antibody, the blots were rinsed once with TBST/2.5% nonfat milk and washed with TBST (4 changes over 30 min). Blots were then incubated with secondary goat anti-rabbit IgG-HRP conjugate for 1 hour, washed with TBST (3 changes over 30 min), rinsed with TBS (3 times), and the signal detected with chemiluminescence (Pierce Chemical Co., Rockford, Ill.). […]
binder,measurement,value
B1,binding result,no binding
